According to the supplement of paper PMC9170038:

Tested on: MS2 coat protein
Assay: apparent KD of MS2 coat protein; designed switch direction (-1 OFF switch, 1 ON switch): 1; higher = weaker reporter binding
Procedure, shortened: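 For each design, the apparent KD is the median over clusters of curves fitted to normalised cluster fluorescence. Clusters held RNA switches with common flanks, transcribed on Illumina chips by stalled E. coli RNA polymerase. These were titrated with SNAP-549-labelled MS2 coat protein, doubling from 0.7 or 1.5 nM to 3 µM, without input, with 200 uM small-molecule ligand, or with an oligonucleotide input.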

[1] = Eterna round: R95, input ligand: FMN 200 uM
[2] = Eterna round: R95, input ligand: microRNA oligo, concentration not stated
[3] = Eterna round: R95, input ligand: none
[4] = input ligand: microRNA oligo, concentration not stated

| Sequence | apparent KD of MS2 coat protein [1] [µM] | apparent KD of MS2 coat protein [2] [µM] | apparent KD of MS2 coat protein [3] [µM] | apparent KD of MS2 coat protein (input ligand: FMN 200 uM) [µM] | apparent KD of MS2 coat protein [4] [µM] | apparent KD of MS2 coat protein (input ligand: none) [µM] |
| --- | --- | --- | --- | --- | --- | --- |
| UCUUGGUUUUUGCUCGUUUUUUGUGUUGAACAUGAGGAUCACCCAUGUAUUGUACGGUCCAGUUUGGUAAUGGUCCG [JMF 35] (puzzle: Sensor for hsa-mir-208a) | 0.025 | 0.0149 | 0.0264 | – | – | – |
| AGUCCUGAAUAAAUUAAACAGAGACAUGUACAUGAGGAUCACCCAUGUCAUGUGCAAGUUUUAUGCUCGUCAUAUAA [Sensorship 18 - Jieux - Sensor for hsa-mir-208a] (puzzle: Sensor for hsa-mir-208a) | 0.013 | 0.00835 | 0.0128 | – | – | – |
| GCUACCAUAGAAGCCAACAUGAGGAUCACCCAUGUAUGUUGGUAGGAUAUCGAUUGCAAAGCGAUCGAGAAGGGCUAAGGUAGC [Mat - Same State NG 3 - JL Mod - D83] (Eterna round: R96, puzzle: Same State NG 3) | – | – | – | 0.164 | 0.13 | 0.139 |
| GUGUGUUGCGGGCAGGAUAUGUAUUUGAGUACAUGAGGAUCACCCAUGUGCGCCUGUUUCAGGCGACAGAAGGGCCUAUCGCGAC [JL-ss2-3.27 ViennaUCT mod] (puzzle: Same State 2) | – | 0.106 | – | – | – | – |
| GGCGAAGGAGAAGGAUAUAUCUUGGACAUAUAGAUGCACAUGAGGAUCACCCAUGUCAUCAUGGGAUAGAAGGUCUGCUUCACC [Eternabot solution 33] (Eterna round: R96, puzzle: Same State NG 2) | – | – | – | 0.0132 | 0.0103 | 0.0142 |
| GCCAGUGCGAAACUCACAUGAGGAUCACCCAUGUGCGUUGAGUAGGAUAUCCGGCUACUCGAGGCGGAGAAGGACUGGGUACUG [Eternabot solution 14] (Eterna round: R96, puzzle: Same State NG 3) | – | – | – | 0.0174 | 0.0123 | 0.0173 |
| GAGUGGCAGUUAGGAUAUAUAGUGAUAAUCACAAUAGAAGGAACUGACAUGAGGAUCACCCAUGUAGGACUAAUCCAGAGAGAG [Parity 40 - Jieux - Same State NG 1] (Eterna round: R96, puzzle: Same State NG 1) | – | – | – | 0.0569 | 0.0217 | 0.0268 |
| GGUAAGAAUUAAGGAUAUCGAGUACAUAUGUUUAACAUGAGGAUCACCCAUGUGGGUUGCGGUAUCGAGAAGGUAAAAUAAAAG [Mat - same State NG 2 - JL mod - D65] (Eterna round: R96, puzzle: Same State NG 2) | – | – | – | 0.053 | 0.0292 | 0.0362 |
| GCUCGAAUCAGAACCAACAUGAGGAUCACCCAUGUGUGUUGGUAGGAUAUCGUUUCUAAGGGAAACGAGAAGGGCCGAACGAGC [SameState NG3 #7] (Eterna round: R96, puzzle: Same State NG 3) | – | – | – | 0.0469 | 0.0494 | 0.0891 |
| UGUUGUAUUACAGGAUAUCUAUUAUUUAUAUUUAGAGAAGGGUAUUCACAUGAGGAUCACCCAUGUAUAUACGAGGAAGUUGUG [JMF's solution 19] (Eterna round: R96, puzzle: Same State NG 1) | – | – | – | – | 0.0364 | – |
| GCGAAAUGAUGAAACAUGAGGAUCACCCAUGUAACGAGAGAUGAGGAUAUCGGAAAGGGAGGAGACGAGAAGGCAUGGUCACGC [AK SSNG3-V2-25.1] (Eterna round: R96, puzzle: Same State NG 3) | – | – | – | 0.0484 | 0.043 | 0.0587 |
| GUAGCAUACCGAGGAUAUUCAACAUGAGGAUCACCCAUGUGUUUGUUAUAGGCCAAAAGGCCUUGGGAGAAGGCGGAAUGCUAC [Xeonanis - 20 Mod16] (Eterna round: R96, puzzle: Same State NG 2) | – | – | – | 0.00903 | 0.00965 | 0.0129 |
| GGACGAGACGCAGGAUAUGCGAAGAAGAAGGAAGCAGAAGGGCGUGUGGGACGACAUGAGGAUCACCCAUGUUCUCUGCGAGGA [ssng1 b] (Eterna round: R96, puzzle: Same State NG 1) | – | – | – | 0.363 | 0.116 | 0.331 |
| AUUAAACAUGAGGAUCACCCAUGUCAACAAAGUCGAGGAUAUGGGCAAAUAAAAUAAUAACCAGAAGGCGAAUAAU [salish99_ss1_r3_065] (puzzle: Same State 1) | 0.0378 | 0.353 | 0.295 | – | – | – |
| GCUCGAUGUGCUGUCUACAUGAGGAUCACCCAUGUAGAUGCGGAGGAUAUCUACGUGCUUUAUGUAGAGAAGGUCGUAUCGAGC [SameState NG3 #84] (Eterna round: R96, puzzle: Same State NG 3) | – | – | – | 0.0525 | 0.0502 | 0.0904 |
| AUUAUUAAUGCAGGAUAUGAUUAACAUGAGGAUCACCCAUGUGGUGUUGUGAGUAAGGAGAGUGAUCAGAAGGGCAUAUUUUUU [JMF's solution 9] (Eterna round: R96, puzzle: Same State NG 2) | – | – | – | 0.668 | 0.407 | 0.625 |
| CAGCACUAUCGAGAGGAUAUGCGGUGAUGGACAUGAGGAUCACCCAUGUUAGCGAUAGCAUCACGGCAGAAGGCUCUGCUGCUGC [Soteed Omei mod 37] (puzzle: Same State 2) | 0.0106 | 0.0176 | 0.0241 | – | – | – |
| UUGAAUAAUUAAGGAUAUCGAGUCAAGAUGUUAAACAUGAGGAUCACCCAUGUGGGUUGCGGUAUCGAGAAGGUAAAUAAUAAG [Mat - Same State NG 2 - JL mod - D56] (Eterna round: R96, puzzle: Same State NG 2) | – | – | – | 0.0386 | 0.0288 | 0.0365 |
| UUAAUGAUGUAAGGAUAUACAUGAGGAAAUCUCGUAGAAGGUACAGGACAUGAGGAUCACCCAUGUGUCGCUCAGAAGAGCGUA [Mat - Same State NG 1 - JL mod - D18] (Eterna round: R96, puzzle: Same State NG 1) | – | – | – | 0.0863 | 0.0396 | 0.0712 |
| GGGCCACAUGAGGAUCACCCAUGUGGAGCUAGUGCACGGUCACAGGAUAUCUCGUGGGCGUAUAGGGAGAAGGGUGAUUCAUUA [Eternabot solution 18] (Eterna round: R96, puzzle: Same State NG 3) | – | – | – | 0.0472 | 0.0513 | 0.0523 |
| UAAAUACAUGAGGAUCACCCAUGUCAAAAGACAUGAGGAUAUGUACAGACUUCGGUCUGUACAGAAGGCAUGAAAA [salish99_ss1_r3_095] (puzzle: Same State 1) | 0.0436 | 0.708 | 0.89 | – | – | – |
| AUACUCAUGUAAGGAUAUGCAGCCGUUUCGGCUGCAGAAGGUACUAUAAUACAUGAGGAUCACCCAUGUCUCUAUUAUUUAGUU [JL SSNG1 1.46] (Eterna round: R96, puzzle: Same State NG 1) | – | – | – | 0.0721 | 0.0466 | 0.0551 |
| UUGAAGAAUUAAGGAUAUUGAGUACAUAUGUUUAACAUGAGGAUCACCCAUGUGGGUUGCGGUAUCGAGAAGGUAAAUUACUAG [JL SSNG2 1.45] (Eterna round: R96, puzzle: Same State NG 2) | – | – | – | 0.0912 | 0.0761 | 0.155 |
| GUUAAACAUGAGGAUCACCCAUGUAAUAAUAUGGGAGGAUAUCAGAAAGUAUGUAUGAAAUGAGAAGGCCUAAUUG [Mat - Same State 1 - Mod of Eli - D78] (puzzle: Same State 1) | 0.0579 | 0.154 | 0.124 | – | – | – |
| UUACUCAUGUAAGGAUAUGCAGCCGAAACGGCUGCAGAAGGUACUAUAAUACAUGAGGAUCACCCAUGUCUCUAUUAUAAAGUU [Mat - Same State NG 1 - JL mod - D95] (Eterna round: R96, puzzle: Same State NG 1) | – | – | – | 0.0948 | 0.0434 | 0.0495 |
| GUUACAUGAGGAUCACCCAUGUAUGUGUGGGAGUAAGUGUCUUAGGAUAUCUAUCAUUUAAUUCAAGAGAAGGAAGAUUGUUGU [JMF's solution 100] (Eterna round: R96, puzzle: Same State NG 3) | – | – | – | 0.126 | 0.0961 | 0.103 |
| AUUGCUUUCGCAGGAUAUGAUGCGAAAAUUGCGUCAGAAGGGUGGAGUCUCUCAUUGCAAGAGGACAUGAGGAUCACCCAUGUC [SameState NG1 #86] (Eterna round: R96, puzzle: Same State NG 1) | – | – | – | 0.177 | 0.245 | 0.322 |
| AAAAUAUAAAGAGAGGAUAUCCAAAGAACCACAUGAGGAUCACCCAUGUAAAGAAAGAAUAAGUGGGAGAAGGCUCAAAUAAUAA [Designing denovo 24] (Eterna round: R96, puzzle: Same State 2) | – | – | – | 0.0248 | 0.0828 | 0.114 |
| GAGUGGCAGUAAGGAUAUAUAGUGAUAAUCACAGUAGAAGGUACUGACAUGAGGAUCACCCAUGUAGGACUAAUCCAGAGAGAG [Parity 42 - Jieux - Same State NG 1] (Eterna round: R96, puzzle: Same State NG 1) | – | – | – | 0.0736 | 0.0264 | 0.0375 |
| CUGCAACAUGAGGAUCACCCAUGUAACCCGGUUACAGGAUAUGUGAUGGUGAUCGACAUGACAGAAGGGUGAUUGG [Indiinbi] (puzzle: Same State 1) | 0.0415 | 0.0215 | 0.0295 | – | – | – |
